These results are taken from publication PMC8938923, “Essential Functional Interplay of the Catalytic Groups in Acid Phosphatase” (ACS Catalysis, 2022).

Substrate in data set [1]: O=P(O)(O)O[C@H]1O[C@H](CO)[C@@H](O)[C@H](O)[C@H]1O
The experiment in a line: phosphomonoester hydrolysis kinetics. The class given is biochemical, Escherichia coli.

Substrate in data set [2]: O=P(O)(O)O[C@H]1O[C@H](CO)[C@@H](O)[C@H](O)[C@H]1O
Briefly: purified protein, by the assay type. Also noted: Michaelis-Menten kinetics of substrate hydrolysis, initial rates of free phosphate release, pH 7.0, 37 °C. The method, then: 8 S1.10 Structure determination and refinement The structure of H18D was determined by molecular replacement with PHASER9 using PDB ID: 1NT4 (H18A) as a search model. Model building was performed with COOT10 and refine-ment was carried out with phenix.refine. 11 The final structures were evaluated using MolPro-bity. 12 The number of Ramachandran outliers was below 0.2%. Figures of the structural models were prepared using PyMol 1.3. 13 S1.11 Phosphatase kinetics The rate constant kcat and the Michaelis constant KM were determined by measuring the initial rate of phosphate hydrolysis catalyzed by wild-type ecAGP (2 nM), H18D or H18D-2 (110 µM), D290A (2 nM - 5 µM, depending on the substrate used) or H18D/D290A (110 µM) in 50 mM HEPES buffer (pH 7.0). Reactions were incubated at 37°C on a Thermomixer comfort (Eppendorf, Hamburg, Germany) with agitation at 650 rpm. The reactions were started by ad-dition of enzyme. Glc1P, Glc6P, and the bis(cyclohexylammonium) salts of [compound left out], 2-nitrophenyl phosphate, 3-nitrophenyl phosphate, [compound left out] phosphate, 4-cyanophenyl S13 phosphate and 3-chlorophenyl phosphate were used as substrates in concentrations ranging from 0.01 mM to 10 mM. Incubation times were adjusted to ensure that the overall substrate hydrolysis was below 10 %. Samples withdrawn were quenched by heating (99°C, 5 min) and the free phosphate concentration was measured in supernatants of centrifuged (16000 × g, 15 min, 4°C) samples. All reactions were performed in triplicate. Kinetic parameters were obtained from non-linear least squares fits (SigmaPlot, Systat, Erkrath, Germany) of initial rates of phosphate release to the Michaelis–Menten equation. V is the initial rate, Vmax is the maximum initial rate, KM is the Michaelis constant and [S] is the initial substrate concentration (equation 1). The kcat was obtained from the relationship, kcat = Vmax/[E], where [E] is the molar concentration of active sites. [E] was obtained from the protein concentration using a molecular mass of the ecAGP subunit of 46674 Da. S10 (Merck Millipore) to a total protein concentration of 13 mg/mL in 10 mM NaAc (pH 4.5). Aliquots of 70 µL were stored at -70°C until use. Purity of the protein preparations was verified by SDS-PAGE. The ecAGP activity was assayed as described below in the section phosphatase kinetics. One unit of ecAGP activity is the amount of enzyme releasing 1 μmol of inorganic phosphate from Glc1P per minute under the conditions applied. S1.5 YidA The YidA from E. coli was used. A N-terminally His-tagged enzyme preparation was applied. […]

Residue numbers refer to the chain shown, from its start. Names and notes keep the numbering of the source.

B1: ecAGP (α-D-glucose 1-phosphate phosphatase) (Escherichia coli K-12) (protein)
chain: QTVPEGYQLQQVLMMSRHNLRAPLANNGSVLEQSTPNKWPEWDVPGGQLTTKGGVLEVYMGHYMREWLAEQGMVKSGECPPPYTVYAYANSLQRTVATAQFFITGAFPGCDIPVHHQEKMGTMDPTFNPVITDDSAAFSEQAVAAMEKELSKLQLTDSYQLLEKIVNYKDSPACKEKQQCSLVDGKNTFSAKYQQEPGVSGPLKVGNSLVDAFTLQYYEGFPMDQVAWGEIKSDQQWKVLSKLKNGYQDSLFTSPEVARNVAKPLVSYIDKALVTDRTSAPKITVLVGHDSNIASLLTALDFKPYQLHDQNERTPIGGKIVFQRWHDSKANRDLMKIEYVYQSAEQLRNADALTLQAPAQRVTLELSGCPIDADGFCPMDKFDSVLNEAVK
notes: purified enzyme; homodimer; expression construct and tags only in supplement
A word on the Km: it is the concentration of substrate that gives half-maximal velocity. On to B1, for which, in data set [1] (range printed jointly for wild-type and H18D, individual values in supplement), the kcat is reported as 35 ± 2 s^–1. Moreover, in data set [2], the Michaelis-Menten constant (Km) was determined as 0.09 ± 0.02 mM and the kcat was 35 ± 1.7 s⁻¹.

B2: ecAGP (α-D-glucose 1-phosphate phosphatase) (Escherichia coli K-12; D312A) (protein)
chain: B1 chain with D290A
notes: as for B1
As to B2, in data set [1] (general acid-base removed), the Km is reported as 1.06 ± 0.12 mM and the kcat worked out at 0.014 ± 0.01 s⁻¹.

B3: ecAGP (α-D-glucose 1-phosphate phosphatase) (Escherichia coli K-12; H40D) (protein)
chain: B1 chain with H18D
notes: as for B1
In the case of B3, in data set [1] (range printed jointly for wild-type and H18D, phospho-enzyme intermediate on Asp18), the kcat is reported as 2.0 × 10^–4 s^–1.

B4: YidA (alternative name: HAD13) (Escherichia coli K-12) (protein)
chain: MAIKLIAIDMDGTLLLPDHTISPAVKNAIAAARARGVNVVLTTGRPYAGVHNYLKELHMEQPGDYCITYNGALVQKAADGSTVAQTALSYDDYRFLEKLSREVGSHFHALDRTTLYTANRDISYYTVHESFVATIPLVFCEAEKMDPNTQFLKVMMIDEPAILDQAIARIPQEVKEKYTVLKSAPYFLEILDKRVNKGTGVKSLADVLGIKPEEIMAIGDQENDIAMIEYAGVGVAMDNAIPSVKEVANFVTKSNLEDGVAFAIEKYVLN
notes: construct only in supplement
With B4, in data set [2], the Km was determined as 0.21 ± 0.03 mM and the kcat worked out at 20 ± 1.3 s⁻¹.
